Test results from the supplement of paper PMC7125110.
± gives the standard error. This sample holds only a part of the variants without activity.

B1: glmS ribozyme (parent)
chain: AUAAAAGCGCCAGAACUACAGAAAUGUAGUUGACGAGGAGGAGGUUUAUCGAAUUUUCGGCGGAUGCCUCCAAA

Experiments:
Settings in all cases: with glucosamine-6-phosphate
glucosamine-6-phosphate [1] = variants of: B1; test: self-cleavage kobs at 640 uM GlcN6P; higher = faster cleavage; RNA array
Summary of the method: (§1)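 kobs was derived by fitting per-tile medians to one- or two-exponential decays after normalising signals to baseline and to non-cleaving reference variants. Those signals came from barcoded ribozyme variants transcribed in situ by E. coli RNA polymerase on sequenced MiSeq chips, followed through a hybridised Cy3 probe at 37 °C and imaged over ~14 h. Glucosamine-6-phosphate (40 μM to 10 mM) in HEPES/KCl/Mg(OAc)2 buffer was flowed in. Weighted Michaelis–Menten fits across concentrations then gave kcat and KM.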

glucosamine-6-phosphate [2] = variants of: B1; test: self-cleavage kobs at 2500 uM GlcN6P; higher = faster cleavage; RNA array
Summary of the method: as §1

glucosamine-6-phosphate [3] = variants of: B1; test: self-cleavage kobs at 10000 uM GlcN6P; higher = faster cleavage; RNA array
Summary of the method: as §1

C11A A42C U46C C71U
self-cleavage kobs at 640 uM GlcN6P (glucosamine-6-phosphate [1]): < 1e-05 s⁻¹

A14G A52U G60A
self-cleavage kobs at 640 uM GlcN6P (glucosamine-6-phosphate [1]): < 1e-05 s⁻¹

A12U G32C C50G C70G
self-cleavage kobs at 640 uM GlcN6P (glucosamine-6-phosphate [1]): 0.000371 ± 0.00015 s⁻¹
self-cleavage kobs at 2500 uM GlcN6P (glucosamine-6-phosphate [2]): 0.000257 ± 8.3e-05 s⁻¹

G13A U45C G66A
self-cleavage kobs at 640 uM GlcN6P (glucosamine-6-phosphate [1]): 0.000124 ± 3e-05 s⁻¹
self-cleavage kobs at 2500 uM GlcN6P (glucosamine-6-phosphate [2]): 9.89e-05 ± 2.4e-05 s⁻¹
self-cleavage kobs at 10000 uM GlcN6P (glucosamine-6-phosphate [3]): 0.000343 ± 0.00011 s⁻¹

A14C G41A G62U C70G
self-cleavage kobs at 640 uM GlcN6P (glucosamine-6-phosphate [1]): < 1e-05 s⁻¹
self-cleavage kobs at 2500 uM GlcN6P (glucosamine-6-phosphate [2]): < 1e-05 s⁻¹

C10U G63C U65G C70A C71A
self-cleavage kobs at 640 uM GlcN6P (glucosamine-6-phosphate [1]): 0.000118 ± 4.2e-05 s⁻¹
self-cleavage kobs at 10000 uM GlcN6P (glucosamine-6-phosphate [3]): < 1e-05 s⁻¹

A12G G26U G38A C68G C71A
self-cleavage kobs at 640 uM GlcN6P (glucosamine-6-phosphate [1]): 0.000109 ± 2e-05 s⁻¹
self-cleavage kobs at 2500 uM GlcN6P (glucosamine-6-phosphate [2]): 7.22e-05 ± 2.4e-05 s⁻¹

A12C U47C U65C
self-cleavage kobs at 640 uM GlcN6P (glucosamine-6-phosphate [1]): < 1e-05 s⁻¹

A12C A33U A52G U54G
self-cleavage kobs at 640 uM GlcN6P (glucosamine-6-phosphate [1]): < 1e-05 s⁻¹

C11U A36C G43U C71A
self-cleavage kobs at 640 uM GlcN6P (glucosamine-6-phosphate [1]): < 1e-05 s⁻¹

A14G A15C G29A U47C C67A C71A
self-cleavage kobs at 640 uM GlcN6P (glucosamine-6-phosphate [1]): < 1e-05 s⁻¹

C11A G44A C68A
self-cleavage kobs at 640 uM GlcN6P (glucosamine-6-phosphate [1]): < 1e-05 s⁻¹
self-cleavage kobs at 2500 uM GlcN6P (glucosamine-6-phosphate [2]): < 1e-05 s⁻¹

C11A C50G U57G
self-cleavage kobs at 640 uM GlcN6P (glucosamine-6-phosphate [1]): 8.51e-05 ± 3e-05 s⁻¹
self-cleavage kobs at 2500 uM GlcN6P (glucosamine-6-phosphate [2]): 7.4e-05 ± 2.5e-05 s⁻¹

A12G G59C A64U
self-cleavage kobs at 640 uM GlcN6P (glucosamine-6-phosphate [1]): < 1e-05 s⁻¹

C11G A15C G32U A33C C50U C71A
self-cleavage kobs at 640 uM GlcN6P (glucosamine-6-phosphate [1]): 0.000149 ± 4e-05 s⁻¹

A12C G43A C61U
self-cleavage kobs at 640 uM GlcN6P (glucosamine-6-phosphate [1]): < 1e-05 s⁻¹
self-cleavage kobs at 2500 uM GlcN6P (glucosamine-6-phosphate [2]): < 1e-05 s⁻¹

G13C G29C
self-cleavage kobs at 640 uM GlcN6P (glucosamine-6-phosphate [1]): 2.89e-05 ± 9.5e-06 s⁻¹
self-cleavage kobs at 2500 uM GlcN6P (glucosamine-6-phosphate [2]): 3.23e-05 ± 1.2e-05 s⁻¹
self-cleavage kobs at 10000 uM GlcN6P (glucosamine-6-phosphate [3]): 9.98e-05 ± 2.1e-05 s⁻¹

G13U U56C A64U
self-cleavage kobs at 640 uM GlcN6P (glucosamine-6-phosphate [1]): < 1e-05 s⁻¹
self-cleavage kobs at 2500 uM GlcN6P (glucosamine-6-phosphate [2]): < 1e-05 s⁻¹
self-cleavage kobs at 10000 uM GlcN6P (glucosamine-6-phosphate [3]): < 1e-05 s⁻¹

C11A G13U U31A G32A U47G
self-cleavage kobs at 640 uM GlcN6P (glucosamine-6-phosphate [1]): < 1e-05 s⁻¹

C11G C34U U69G
self-cleavage kobs at 640 uM GlcN6P (glucosamine-6-phosphate [1]): 0.000508 ± 0.00017 s⁻¹

G13U A14U G44C A52G C58G
self-cleavage kobs at 640 uM GlcN6P (glucosamine-6-phosphate [1]): < 1e-05 s⁻¹

G13U U30G A48C
self-cleavage kobs at 640 uM GlcN6P (glucosamine-6-phosphate [1]): < 1e-05 s⁻¹
self-cleavage kobs at 10000 uM GlcN6P (glucosamine-6-phosphate [3]): < 1e-05 s⁻¹

A14G U31G C50G
self-cleavage kobs at 640 uM GlcN6P (glucosamine-6-phosphate [1]): 0.000132 ± 3.6e-05 s⁻¹

A14U A15G C16A A52U A53U
self-cleavage kobs at 640 uM GlcN6P (glucosamine-6-phosphate [1]): < 1e-05 s⁻¹

A14G A33G G37A C50G C70G
self-cleavage kobs at 640 uM GlcN6P (glucosamine-6-phosphate [1]): 6.3e-05 ± 2.1e-05 s⁻¹
self-cleavage kobs at 2500 uM GlcN6P (glucosamine-6-phosphate [2]): 4.9e-05 ± 1.5e-05 s⁻¹

A14G A15U A48U U69C
self-cleavage kobs at 640 uM GlcN6P (glucosamine-6-phosphate [1]): 6.32e-05 ± 2.6e-05 s⁻¹
self-cleavage kobs at 10000 uM GlcN6P (glucosamine-6-phosphate [3]): 7.49e-05 ± 2e-05 s⁻¹

C11G A36C G38U C50A U65G
self-cleavage kobs at 640 uM GlcN6P (glucosamine-6-phosphate [1]): < 1e-05 s⁻¹
self-cleavage kobs at 2500 uM GlcN6P (glucosamine-6-phosphate [2]): < 1e-05 s⁻¹
self-cleavage kobs at 10000 uM GlcN6P (glucosamine-6-phosphate [3]): < 1e-05 s⁻¹

C11U A33C G41A
self-cleavage kobs at 640 uM GlcN6P (glucosamine-6-phosphate [1]): < 1e-05 s⁻¹

G13U C61U C70G
self-cleavage kobs at 640 uM GlcN6P (glucosamine-6-phosphate [1]): < 1e-05 s⁻¹

A12U U30C A53C
self-cleavage kobs at 640 uM GlcN6P (glucosamine-6-phosphate [1]): 0.000316 ± 0.0001 s⁻¹
self-cleavage kobs at 2500 uM GlcN6P (glucosamine-6-phosphate [2]): 0.000389 ± 0.00012 s⁻¹
self-cleavage kobs at 10000 uM GlcN6P (glucosamine-6-phosphate [3]): 0.00132 ± 0.00056 s⁻¹

A14G C34U U54G C58G U69G
self-cleavage kobs at 640 uM GlcN6P (glucosamine-6-phosphate [1]): 0.000551 ± 0.0002 s⁻¹

A14U A15G G35U
self-cleavage kobs at 640 uM GlcN6P (glucosamine-6-phosphate [1]): < 1e-05 s⁻¹
self-cleavage kobs at 2500 uM GlcN6P (glucosamine-6-phosphate [2]): < 1e-05 s⁻¹

G13C A36U G59A
self-cleavage kobs at 640 uM GlcN6P (glucosamine-6-phosphate [1]): < 1e-05 s⁻¹

A12G G13U U47G A53U G66A
self-cleavage kobs at 640 uM GlcN6P (glucosamine-6-phosphate [1]): < 1e-05 s⁻¹

A12C U46A G62C
self-cleavage kobs at 640 uM GlcN6P (glucosamine-6-phosphate [1]): < 1e-05 s⁻¹

C11A A33G A48C C67U
self-cleavage kobs at 640 uM GlcN6P (glucosamine-6-phosphate [1]): < 1e-05 s⁻¹
self-cleavage kobs at 2500 uM GlcN6P (glucosamine-6-phosphate [2]): < 1e-05 s⁻¹

A14G G35A C71G
self-cleavage kobs at 640 uM GlcN6P (glucosamine-6-phosphate [1]): < 1e-05 s⁻¹

A14U G40C U69C C71U
self-cleavage kobs at 640 uM GlcN6P (glucosamine-6-phosphate [1]): < 1e-05 s⁻¹

A12C U49G C67U
self-cleavage kobs at 640 uM GlcN6P (glucosamine-6-phosphate [1]): 5e-05 ± 1.4e-05 s⁻¹
self-cleavage kobs at 2500 uM GlcN6P (glucosamine-6-phosphate [2]): 7.89e-05 ± 1.5e-05 s⁻¹

G13U A14G G37A U45A
self-cleavage kobs at 640 uM GlcN6P (glucosamine-6-phosphate [1]): 9.84e-05 ± 2.1e-05 s⁻¹
self-cleavage kobs at 2500 uM GlcN6P (glucosamine-6-phosphate [2]): 0.000193 ± 3.6e-05 s⁻¹

G13C A33C
self-cleavage kobs at 640 uM GlcN6P (glucosamine-6-phosphate [1]): < 1e-05 s⁻¹
self-cleavage kobs at 2500 uM GlcN6P (glucosamine-6-phosphate [2]): < 1e-05 s⁻¹

G13A A48U U54C
self-cleavage kobs at 640 uM GlcN6P (glucosamine-6-phosphate [1]): < 1e-05 s⁻¹

C11A U30G U54G
self-cleavage kobs at 640 uM GlcN6P (glucosamine-6-phosphate [1]): 4.96e-05 ± 1.4e-05 s⁻¹
self-cleavage kobs at 2500 uM GlcN6P (glucosamine-6-phosphate [2]): 0.000114 ± 2.1e-05 s⁻¹

A14U A64U U65A C67G C71G
self-cleavage kobs at 640 uM GlcN6P (glucosamine-6-phosphate [1]): 7.6e-05 ± 2.4e-05 s⁻¹
self-cleavage kobs at 2500 uM GlcN6P (glucosamine-6-phosphate [2]): 4.74e-05 ± 2.1e-05 s⁻¹

A12U A14G U30G A33G G66A
self-cleavage kobs at 640 uM GlcN6P (glucosamine-6-phosphate [1]): < 1e-05 s⁻¹
self-cleavage kobs at 2500 uM GlcN6P (glucosamine-6-phosphate [2]): < 1e-05 s⁻¹

G13U A48C G59U G66U
self-cleavage kobs at 640 uM GlcN6P (glucosamine-6-phosphate [1]): < 1e-05 s⁻¹

A14U G29A G62A U69G
self-cleavage kobs at 640 uM GlcN6P (glucosamine-6-phosphate [1]): 7.37e-05 ± 2.9e-05 s⁻¹

A15C A36G U55A
self-cleavage kobs at 640 uM GlcN6P (glucosamine-6-phosphate [1]): < 1e-05 s⁻¹
self-cleavage kobs at 2500 uM GlcN6P (glucosamine-6-phosphate [2]): < 1e-05 s⁻¹

C11U G13A A48G U56C
self-cleavage kobs at 640 uM GlcN6P (glucosamine-6-phosphate [1]): < 1e-05 s⁻¹

A12G U30G G43C U46G
self-cleavage kobs at 640 uM GlcN6P (glucosamine-6-phosphate [1]): < 1e-05 s⁻¹

C11U A14C A39G
self-cleavage kobs at 640 uM GlcN6P (glucosamine-6-phosphate [1]): 0.000103 ± 3.3e-05 s⁻¹
self-cleavage kobs at 2500 uM GlcN6P (glucosamine-6-phosphate [2]): 0.000472 ± 0.00019 s⁻¹

A12C G32C G62A G63U
self-cleavage kobs at 640 uM GlcN6P (glucosamine-6-phosphate [1]): < 1e-05 s⁻¹
self-cleavage kobs at 2500 uM GlcN6P (glucosamine-6-phosphate [2]): < 1e-05 s⁻¹

A12G A15G G35A C68G
self-cleavage kobs at 640 uM GlcN6P (glucosamine-6-phosphate [1]): < 1e-05 s⁻¹

A14U A33C U57C
self-cleavage kobs at 640 uM GlcN6P (glucosamine-6-phosphate [1]): 0.0103 ± 0.004 s⁻¹

C11U A53G G66A
self-cleavage kobs at 640 uM GlcN6P (glucosamine-6-phosphate [1]): 0.000178 ± 4e-05 s⁻¹

G13A G40A G44U C67U C68G
self-cleavage kobs at 640 uM GlcN6P (glucosamine-6-phosphate [1]): < 1e-05 s⁻¹
self-cleavage kobs at 2500 uM GlcN6P (glucosamine-6-phosphate [2]): < 1e-05 s⁻¹
self-cleavage kobs at 10000 uM GlcN6P (glucosamine-6-phosphate [3]): < 1e-05 s⁻¹

C11A U31G G35C
self-cleavage kobs at 640 uM GlcN6P (glucosamine-6-phosphate [1]): < 1e-05 s⁻¹
self-cleavage kobs at 2500 uM GlcN6P (glucosamine-6-phosphate [2]): < 1e-05 s⁻¹

C11U A15C A33G G44U U49C A64C C70U
self-cleavage kobs at 640 uM GlcN6P (glucosamine-6-phosphate [1]): < 1e-05 s⁻¹
self-cleavage kobs at 2500 uM GlcN6P (glucosamine-6-phosphate [2]): < 1e-05 s⁻¹

A14U A15U G35A A39C G40U
self-cleavage kobs at 640 uM GlcN6P (glucosamine-6-phosphate [1]): < 1e-05 s⁻¹

A12C G38U C67U
self-cleavage kobs at 640 uM GlcN6P (glucosamine-6-phosphate [1]): < 1e-05 s⁻¹

A14U U47C C58G C68G
self-cleavage kobs at 640 uM GlcN6P (glucosamine-6-phosphate [1]): 5.55e-05 ± 1.6e-05 s⁻¹
self-cleavage kobs at 2500 uM GlcN6P (glucosamine-6-phosphate [2]): 0.000171 ± 4e-05 s⁻¹

A12G A15U U45C G59A
self-cleavage kobs at 640 uM GlcN6P (glucosamine-6-phosphate [1]): < 1e-05 s⁻¹
self-cleavage kobs at 2500 uM GlcN6P (glucosamine-6-phosphate [2]): < 1e-05 s⁻¹

A14G G35U A52U
self-cleavage kobs at 640 uM GlcN6P (glucosamine-6-phosphate [1]): < 1e-05 s⁻¹

G13C G40C A42C
self-cleavage kobs at 640 uM GlcN6P (glucosamine-6-phosphate [1]): < 1e-05 s⁻¹
self-cleavage kobs at 2500 uM GlcN6P (glucosamine-6-phosphate [2]): < 1e-05 s⁻¹

A12C U46A G51U U54G G60A C61A C70A
self-cleavage kobs at 640 uM GlcN6P (glucosamine-6-phosphate [1]): < 1e-05 s⁻¹
